Laboratory results: US20170298395A1, “AUTOTROPHIC HYDROGEN BACTERIA AND USES THEREOF” (Ohio State Innovation Foundation, priority 2011, published 2017)
Where two headings read alike, the source gives them in different places.

B1: G205D/R283H (protein)
chain: MSSFLRALTLRQLQIFVTVARHASFVRAAEELHLTQPAVSMQVKQLESVVGMALFERVKGQLTLTEPGDRLLHHASRILGEVKDAEEGLQAVKDVEQGSITIGLISTSKYFAPKLLAGFTALHPGVDLRIAEGNRETLLRLLQDNAIDLALMGRPPRELDAVSEPIAAHPHVLVASPRHPLHDAKGFDLQELRHETFLLREPGSDTRTVAEYMFRDHLFTPAKVITLGSNETIKQAVMAGMGISLLSLHTLGLELRTGEIGLLDVAGTPIERIWHVAHMSSKHLSPASESCRAYLLEHTAEFLGREYGGLMPGRRVA
B2: G125D (protein)
chain: MSSFLRALTLRQLQIFVTVARHASFVRAAEELHLTQPAVSMQVKQLESVVGMALFERVKGQLTLTEPGDRLLHHASRILGEVKDAEEGLQAVKDVEQGSITIGLISTSKYFAPKLLAGFTALHPDVDLRIAEGNRETLLRLLQDNAIDLALMGRPPRELDAVSEPIAAHPHVLVASPRHPLHDAKGFDLQELRHETFLLREPGSGTRTVAEYMFRDHLFTPAKVITLGSNETIKQAVMAGMGISLLSLHTLGLELRTGEIGLLDVAGTPIERIWHVAHMSSKRLSPASESCRAYLLEHTAEFLGREYGGLMPGRRVA
B3: G125S/V265M (protein)
chain: MSSFLRALTLRQLQIFVTVARHASFVRAAEELHLTQPAVSMQVKQLESVVGMALFERVKGQLTLTEPGDRLLHHASRILGEVKDAEEGLQAVKDVEQGSITIGLISTSKYFAPKLLAGFTALHPSVDLRIAEGNRETLLRLLQDNAIDLALMGRPPRELDAVSEPIAAHPHVLVASPRHPLHDAKGFDLQELRHETFLLREPGSGTRTVAEYMFRDHLFTPAKVITLGSNETIKQAVMAGMGISLLSLHTLGLELRTGEIGLLDMAGTPIERIWHVAHMSSKRLSPASESCRAYLLEHTAEFLGREYGGLMPGRRVA
B4: E87K (protein)
chain: MSSFLRALTLRQLQIFVTVARHASFVRAAEELHLTQPAVSMQVKQLESVVGMALFERVKGQLTLTEPGDRLLHHASRILGEVKDAEKGLQAVKDVEQGSITIGLISTSKYFAPKLLAGFTALHPGVDLRIAEGNRETLLRLLQDNAIDLALMGRPPRELDAVSEPIAAHPHVLVASPRHPLHDAKGFDLQELRHETFLLREPGSGTRTVAEYMFRDHLFTPAKVITLGSNETIKQAVMAGMGISLLSLHTLGLELRTGEIGLLDVAGTPIERIWHVAHMSSKRLSPASESCRAYLLEHTAEFLGREYGGLMPGRRVA

Key:
[1] = system: RubisCO; assay type: cell-based, Ralstonia eutropha; conditions: for level of RubisCO relative to wild-type CbbR: CH growth conditions; for Chemoheterotrophic RubisCO activity: Table 12, chemoheterotrophic (repressed) growth
[2] = system: cbb promoter; assay type: cell-based, Ralstonia eutropha; conditions: for Chemoheterotrophic β-galactosidase activity: Table 12, chemoheterotrophic (repressed) growth
[3] = Table 12, chemoautotrophic (induced) growth
[4] = Table 9, chemoautotrophic growth conditions

Molecule | level of RubisCO relative to wild-type CbbR [1] [fold] | Chemoautotrophic RubisCO activity [1, 3] | Chemoheterotrophic RubisCO activity [1] | Chemoautotrophic β-galactosidase activity [2, 3] | Chemoheterotrophic β-galactosidase activity [2] | Chemoautotrophic RubisCO activity [1, 4] | Chemoautotrophic β-galactosidase activity [2, 4]
B1 | 530 | 115 nmol/min/mg of protein | 53 nmol/min/mg of protein | 4480 nmol/min/mg of protein | 2311 nmol/min/mg of protein | – | –
B2 | – | 298 nmol/min/mg of protein | 3 nmol/min/mg of protein | 6777 nmol/min/mg of protein | 108 nmol/min/mg of protein | 162 nmol/min/mg of protein | 6777 nmol/min/mg of protein
B3 | – | 259 nmol/min/mg of protein | 2 nmol/min/mg of protein | 6770 nmol/min/mg of protein | 53 nmol/min/mg of protein | 162 nmol/min/mg of protein | 6770 nmol/min/mg of protein
B4 | 330 | 305 nmol/min/mg of protein | 33 nmol/min/mg of protein | 5515 nmol/min/mg of protein | 1597 nmol/min/mg of protein | – | –
